{
  "source": "patent US10428093B2",
  "about": "“Lipid co-factor essential for cell density signaling” (priority 2013, dated 2019)",
  "molecules": {"B1": {"name": "SNZR 1P: secreted 94 AA cell density signal protein factor (chicken, SEQ ID NO:3; tagged form SEQ ID NO:13) (protein, listed as Gallus gallus)", "chain": "EPLAVVDLRPQSSVKVEVHFQDKVEEMSIRLDQTVAELKKHLKTVVQLSTSNMLLFYLDQEAPFGPEEMKYSSRALHSYGIRDGDKIYVEPRMK"}},
  "test_system": "U2OS cells",
  "test": "Growth of U2OS cells after adding concentrated conditioned media or free protein factor",
  "type": "cell-based, human",
  "conditions": "free factor expressed in E. coli added at 5 μg/ml, after a week (6 days), vs control",
  "procedure": "FIGS. 13A-F—The cofactor has a unique lipid makeup depending on the producing cell type but would SNZR 1P1L and SNZR 1P2L give the same or different response if added to the same cell type. In this case we used the control cell line U2OS and added a 5× concentrated condition medium from PAT cells or from U2OS-pESY1c cells. An additional test was done to see if the free factor made in E. coli had any activity on U2OS cells if applied at a high concentration (5 μg/ml).\nTo answer these questions, U2OS cells were grown in regular media as a control, or with 5× concentrated condition media from U2OS-pESY1c cells expressing the SNZR 1P1L, and from 5× concentrated condition media from PAT cells expressing SNZR 1P2L. In addition, SNZR 1P purified from E. coli, was added at 5 μg/ml—3 orders of magnitude greater than the estimated level in CM (FIG. 13a,b,c,d). […] The high level of the protein factor was chosen because it seemed unlikely that the factor without the cofactor would have a lot of activity and small amounts of activity are difficult to detect by visualization.\nU2OS cells were grown in F12/DMEM medium with 0.2% fetal bovine serum. In 75 cm^2 flasks the medium, […], was changed every other day. When the cells first overgrow the monolayer, they are very sensitive to medium volume and will apoptose if too much medium is added.\nCM was produced by growing cells in 225 cm^2 flasks. […]",
  "data": [
    {"molecule": "B1", "values": [
      {"measurement": "Effect on growth of U2OS cells", "result": "did not appear to change the cultures"},
      {"measurement": "Effect on growth of U2OS cells", "setting": "listed as secreted form of the factor", "result": "did not appear to increase growth"}
    ]}
  ]
}
